Reference: the DeepSol protein solubility set

Test: soluble on expression in E. coli; label from the status in PepcDB or PDB records

Row | Sequence | soluble on expression in E. coli
1 | MSLKITDLRVAVVSRAPMTCPIIRIDTNQGIYGLGEVRDGASKNYALMLKSRLLNENPCNVDKLFRKIKQFGGHARQGGGVCGVEMALWDLAGKAYNVPVHQMLGGKFRDRIRCYADTTESHDPKVYGQRLKARRDEGFTWLKMDLGVDLVADVPGALTMPVGERINGNPMVAHMFTGNEITEKGIQLMCDYVAQIREIVGMDIPLSADHFGHIGVNSCIRLGKALTKYNMAWLEDMIPWQQTALLKQIADAVDIPILTGEDIYLKEPFIELCKAHAVDIIHPDLATSGGILETKKIGDAAQELGVAMAMHFAGSPVSCMANVHCAAATENFLVLENHSVDVPWWGDLVEGVSKPIVSKGFITVPNGPGLGVTLNDEVVKQHLGEPGYFEATPYWNVDRSNDRQWSEGHHHHHH | not soluble
2 | MKYAVLIGDGMADYPIEELGSRTILQAARTPAMDSIAARGKTGLAKTVPEGFPPGSDVANMSIFGYDPAIYYSGRAPLEAASMGVALAADDVAFRCNLITIENGKIKDYSAGHISSDEAEILIDTLDSELRTEKVRFYPGISYRHLIVAGNDLGAETECLEHHHHHH | soluble
3 | MSDQQQPPVYKIALGIEYDGSKYYGWQRQNEVRSVQEKLEKALSQVANEPITVFCAGRTDAGVHGTGQVVHFETTAQRKDAAWTLGVNANLPGDIAVRWVKAVPDDFHARFSATARRYRYIIYNHRLRPAVLSKGVTHFYEPLDAERMHRAAQCLLGENDFTSFRAVQCQSRTPWRNVMHINVTRHGPYVVVDIKANAFVHHMVRNIVGSLMEVGAHNQPESWIAELLAAKDRTLAAATAKAEGLYLVAVDYPDRYDLPKPPMGPLFLAD | soluble
4 | MAHHHHHHMERVRYRSSVTRKLIDLYDEVAELYDCRENMRNQVTQAMRIDPRYCKERHGEVRLACKPTLQQQSAVESVENALEGLHDAVHELVAAYLTQEEKRHLGIDTHLFQTSTEKANTYQYAPPPPKPRSSSSNAARRARQKTSAAATFPHPSTRHREVRVEKEEGDAHENTAATAPTPAAPTLTVPVDTPAPQQQPLTNTTTNKKISNSVWDSSAPAASAAFSSAAISLPASSVKLAQQSVVELSQLAAPQQPVTSSSQPLCSSIVHVAAPEKHEDGSGTAAEQKPVAASHTQDTEIAEGTPERVVASAVSASTLSVTWPTDTGAGSTLHLPTGSQPPLATERLLKVPVSSPDALTPIAKTPPAIPPRPTSVQAQAQEPALTSANPTPPPSHPPSQDAVAASCNDASAAKASASQARTAVVGFKRFLIDSDSNSSC | soluble
5 | MAKNTSSNAFRKIDVDQYNEDNFREDDGVESAAAGPDESEITTLLTQGKSVEALLSALQNAPLRCKNQNVKDHALNITLRVLLSIKSTQMDQAIDTLDQNDLIDVLMKYIYRGFEIPSEGSSGHLLQWHEKAFAKGGVGCIVRVLSDTNRALEHHHHHH | soluble
6 | MGSDKIHHHHHHMSRLLRSPQTGAGKLFSAASSENFSKQNLIDAVIKEARRKVMEAEFQKKFMQSWSRYFPGAELPIGFYYTDSAETKFMAKPPKRHRCIIGDLAKVRKGKPQCFDNNAIGCFGGKRYLGFESKLTPDFEYFLSCGIPGKIEGERYKKSPELVKEHLKHQQPLKAPGNYIIFKRWDQMENADIPSVVIFFAAPDVLSGLFTLANFDETHPHGVIAPFGAGCASIVDYPYKELNSPDPRSVLGMFDVSARPCVPSNVLTFAVPWPKFVRMVGNMDESFLITRSWNKVKTRIKKEHAKSNDK | not soluble
7 | MGSDKIHHHHHHMRAKAKLYPKEAARLIREKPGVREAVTGATLHFERNRLKAYAEVPIEAWRERAKAVKDHVLTHLDHYLELAERRLRENGVQVHWAETPEDAHRVLREVVARHGVKRAVKAKSMLTEELGVNPLLEALGVEVYETDLGEYLIQLLGEPPSHIVGPAIHLSLEEIQRLFHQRFGTPLDAPPEALAQVARRVLREAFLTAELGISGANFLVAETGTLALMENEGNIRLSTSLPRVHVAFVGIEKLLPRFADLALFLPLAARAATGQRLSTFVSLIQGPAREGEEGPLEVHVVLVDNGRTALLHDPEAWETLRCLRCGACLNACPVYRQTGGHPYGYVYSGPIGAVLDPGLLTLEEAYPLPYASTLCGACLEACPVKIPIPKLLLAWRHRAVEEGLTPSWEHGAMRAFRKVMESPALYRLFSKGLRGLPLPQDLLPLLKAWTEGRGPLKPSPKPFHELWKEVERGG | not soluble
8 | MIHYRMDQPDRVRCSVCGGIADEVDETYPEEGDFILVIYRCRDCGHLEKRQYGKPVKIID | not soluble
9 | MTTVSVQIPAGWPATEERARAVQDELRARVVLDEPGPPPGTGRVTGVDVAYDDERDVVAAAAVVLDAGTLAVVAEATAVGRISFPYVPGLLAFREIPTVLAALEALPCPPGLVVCDGYGLAHPRRFGLASHLGVLTGLPTIGVAKNPFTFTHDDPDTPRGSTSPLLAGAEEVGRAVRTRDGVKPVFVSVGHRVGLGNACAHTLALTPAYRLPETTRRADALCRAALRDAAYRALEHHHHHH | not soluble
10 | MGSDKIHHHHHHMQTGKAISIPSILKVGNGTLNKIGEYLKSEELTSVVIFMGNGLIDMFGDTIMKSLTDAGITVLEYSELDTVEIDDIITLAFDIPNKVKAVVSVGGGKVIDAGKYAAFLRNMPFISVPTSSSSDGFSSASASLLVHGKRTSVPAKLAHGIIVDTQVIRTAPEKFIYSGIGDMVSKITALYDWIFEEAHGAGVVNDFAVMVAKKAVNSFVRTPYESIKDELFLKELVDSLAMSGIANEIAGSSAPTSGSEHLISHALDKILEHPQLHGIQVGIATYIMSVVQNHRYVRVCTVLKRTGFFDYAATLGMRKQDFLDAIDMAPSMKPFRHTYLHEKEYRDAAKKLVLEDDILNKILV | not soluble
11 | MGSDKIHHHHHHMSRPRIHPLQALFGAHEHRPDLPVCDHYAGVEPRMRKALALQADMADTALFDVTLDLEDGAPVGGEPEHARLAAELVSSAANRHGRVGVRVHPYPHPSFADDVRSLLAGAGERLAYLMIPKAQGVEELRDAIAAIEATRREQGLARAVPVHALVETHGALRDVQAIAALPAIESLSFGLMDFVSAHHGAIPAFGMSLAGQFSHPLVLRAKLEISAACHAAGKLPSHCVVTEYSDTQAIAQAATRASRELGYARMWSIHPNQIRPIVEAFAPVPAEIEAALDILLAAQAADWAPIAHRGLLQDRASYRYHWHVLERAARTGRSLPDTARSAFFATAAA | not soluble
12 | MKRKFLIGSHGRLASGLQSSIDILAGMGQALETIDAYVDDSDYTSQIDDFIAGVAADEQGLIFTDLLGGSVNQKMVTAVMNSGKDNIFLITNSNLATLLSLVFLKPGEALTKDEIVTVINESQVQLVDLVPETNSEDDFFD | not soluble
13 | MGSDKIHHHHHHMSLFDHKITELKQLIHKKEIKISDLVDESYKRIQAVDDKVQAFLALDEERARAYAKELDEAVDGRSEHGLLFGMPIGVKDNIVTKGLRTTCSSKILENFDPIYDATVVQRLQDAEAVTIGKLNMDEFAMGSSTENSAYKLTKNPWNLDTVPGGSSGGSAAAVAAGEVPFSLGSDTGGSIRQPASFCGVVGLKPTYGRVSRYGLVAFASSLDQIGPITRTVEDNAFLLQAISGVDKMDSTSANVDVPDFLSSLTGDIKGLKIAVPKEYLGEGVGKEARESVLAALKVLEGLGATWEEVSLPHSKYALATYYLLSSSEASANLARFDGIRYGYRTDNADNLIDLYKQTRAEGFGNEVKRRIMLGTFALSSGYYDAYYKKAQKVRTLIKKDFEDVFEKYDVIVGPTTPTPAFKIGENTKDPLTMYANDILTIPVNLAGVPGISVPCGLADGLPLGLQIIGKHFDESTVYRVAHAFEQATDHHKAKPEL | not soluble
14 | MNQSADAKPPKPDGRVTRSVTVRKLGPGANKEKQESDNSQKKKTVNAAAQKADTSSKRNSGNPQKPKKPKHEAIKVSTRRLSASSKPPPPAPQNVPKMNSFVGNGNTRMIMVQTTPQAKKLEAEMKLRMQNKGESPEASLLVLESRTPEPTVQQVLEELQNDVVNPKSSTTPEGYSFELRNLKTPEIPAMPTPLACSPAAARNSPVVKKIQNHVPNVTLVPSEPREPSLRKLHLGTLKLKFLAFPLTTGFKKLQKLQDPLARIKLATEKLKERRAQLDTQKKHTMFLPEAFIGPHFNETIASGFYALFNASHFQVHYNSEGKRLGSGTMCVLKNQMNGARDWFAGNTWRAVKMMYMRTRDAEKHKNSEVKLFVEKLPDWSTEQLEEKLRNEFKLSDFQLLYDYKGNNLRSAIVLLKYPDAINLCNSIRSNPTVFGKEWHPRVFEVLDVAVQPPIDK | not soluble
15 | MNKSNNEPFNQVLDKHLSRRNFVKSGLGLGAMTAFAGMGLTGCGSDSSSSPIPVDPVPPLPPTKSSAKLNFTSVKGARLNAVVVPEGYSAQVLAPWGTPLNAKAAPWKADGSNTADDQANSVGMHHDGMHFFPLNQAGDDGLLCINHEYIDEIALHPNGPTVDATTGLRTIVDEVRKEINAHGVSVVRIKLTNNQWEVVYNDKHNRRFTGATVMDIAGPLAYSPLLETRYSPDGSQARGTLNNCGNGYTPWGTYLTCEENWPEYFVNRSTLTRDQIRIGISKTSSRYGWDDLAGQDEERLDEFSRFDVTPKGVSARDDYRNEANGHGYIVEIDPYNPTSRAIKRTALGRFRHEGCTFGKLSEGQPVVFYSGHDARFEYLYKFVSAAPWNPQDANSSNRLEIGDKYMNEGTLYAAKFNENGVGAWLPLTLDSQTTDGKTLGNSFASLADIILNTAGAADLLGATPMDRPEWCAVDPFTGSVYLTLTNNSKRTEANPANPRLKNNFGHIIRWDEADKETEFTWDIFVFGSPSDGNAETNLSGLTDLNQFASPDGLAFDKRGILWVQTDNGAEEVAEETNDQMLAIVPSTLLDSANKQTSVTAKNQMELKRFFVGPNDCEVTGFAISPDYKTVFANIQHPGNWPYSNNAAEVTPTGVVLRPRAATVVIRKLDGKEVAVLEHHHHHH | soluble
16 | MGSDKIHHHHHHMFLMVIINPTDGMSAMSAPLDTDQLQTFIAIVDTGSFTKAAGRVFKTQSAVSMQMRRLEERIGKQLFIKDGRGNRLTAEGEKLLNYARRIVRLNSEAIAAFDDNRLEGTLRIGTPDDYADRYMPEIIGRFAKTHPNVELYIVCEPSSDLAEKMARGELDIALVTHNPATRQSDVMRTEPLCWVASANHPLRDDAPVPLAVGRRDCNWRQLACSALDADGRDYQILFTSWSSTVVAAAVLAGLAVSVLPESALRTGMKVLGQLDGFPPLPPVQIGIMKRPGMSPSLMNAITDHIAACLDNINPTAIEDDMDGETKTYSRYYPRLRAGHMIPGW | not soluble
17 | MGSDKIHHHHHHMPTKRGQIRHDPSSKKATTMDLNRRPVASLWIGESLQYLNQLCLKSHLRHGHPVTLYCTDKVTNAPEGVVVKPATDIMDIPMNIVEQTSASFLSNVFRYKMIQQTGAIWIDCDAFCHAPFPDEWEHIYAGHGMRGALNCGVVGIPQQGELMDQLLDYYDNLPDYPPWWNPRQRKRMDRQDSNLPLAVRIYKTERTAFGPQAFTHFARETGDIDRAMTSDVLYPVPFQLNDIFYDPHGRVEGWFSENTRSVHLYTNGTKPWWRKNPPLENSYAWRMCQEVGITPEDALE | not soluble
18 | MNLKQAFIDNNSIRLGLSADTWQEAVRLAVQPLIDSKAVTSAYYDAIIASTEKYGPYYVLMPGMAMPHAEAGLGVNRNAFALITLTKPVTFSDGKEVSVLLTLAATDPSIHTTVAIPQIVALFELDNAIERLVACQSPKEVLEMVEESKDSPYLEGMDLNA | soluble
19 | MTRMKYLVAAATLSLFLAGCSGSKEEVPDNPPNEIYATAQQKLQDGNWKQAITQLEALDNRYPFGPYSQQVQLDLIYAYYKNADLPLAQAAIDRFMRLNPTHPNIDYVMYMRGLTNMALDDSALQGFFGVDRSDRDPQHARAAFNDFSKLVRSYPNSQYTTDATKRLVFLKDRLAKYEYSVAEYYTARGAWVAVVNRVEGMLRNYPDTQATRDALPLMENAYRQMQLNAQADKVAKIIAANSKNT | not soluble
20 | MSLTHCKNQHCGGELGDYTGYIESPNYPGDYPANAECVWHIAPPPKRRILIVVPEIFLPIEDECGDVLVMRKSASPTSITTYETCQTYERPIAFTSRSRKLWIQFKSNEGNSGKGFQVPYVTYDEDYQQLIEDIVRDGRLYASENHQEILKDKKLIKALFDVLAHPQNYFKYTAQESKEMFPRSFIKLLRSKVSRFLRPYKEGHHHHHH | not soluble
